From patent US20250136681A1

Target: IL-2 receptor (human)
Assay: cell-based or functional assay

- EC50 of pSTAT5 increase on CD56brightCD16- NK cells (intracellular flow cytometry, human PBMCs): 60 pM
Substance: wild type recombinant IL-2 (ligand)
